Consider three molecules from patent publication US8268585B2.

To fix the notation:
B1: 43 kD endoglucanase (pI 4.2), C1-EG6, Family 6, Chrysosporium lucknowense (enzyme)
chain: QASAGCASAVTLDASTNVFQQYTLHPNNFYRAEVEAAAEAISDSALAEKARKVADVGTFLWLDTIENIGRLEPALEDVPCENIVGLVIYDLPGRDCAAKASNGELKVGELDRYKTEYIDKIAEILKAHSNTAFALVIEPDSLPNLVTNSDLQTCQQSASGYREGVAYALKQLNLPNVVMYIDAGHGGWLGWDANLKPGAQELASVYKSAGSPSQVRGISTNVAGWNAWDQEPGEFSDASDAQYNKCQNEKIYINTFGAELKSAGMPNHAIIDTGRNGVTGLRDEWGDWCNVNGAGFGVRPTANTGDELADAFVWVKPGGESDGTSDSSAARYDSFCGKPDAFKPSPEAGTWNQAYFEMLLKNANPSF
B2: 25 kD endoglucanase (pI 4.1), C1-EG5, Family 45, Chrysosporium lucknowense (enzyme)
chain: QLSGSGQTTRYWDCCKPSCAWPGKGPSSPVQACDKNDNPLNDGGSTRSGCDAGGSAYMCSSQSPWAVSDELSYGWAAVKLAGSSESQWCCACYELTFTSGPVAGKKMIVQATNTGGDLGDNHFDLAIPGGGVGIFNACTDQYGAPPNGWGDRYGGIHSKEECESFPEALKPGCNWRFDWFQNADNPSVTFQEVACPSELTSKSGCSR

In this assay the target is Dyed casein.
“55 kD cellobiohydrolase (pI 4.4), CBH1, Chrysosporium lucknowense (enzyme)” gave an activity toward dyed casein, 50° C., arbitrary units/mg (arbitrary units/mg) of 0.
For B1 the value was 0; for B2, 0.
